17 molecules from patent US20050267020A1, “Polypeptides derived from inducible hsp70 and pharmaceutical compositions containing the same” (priority 2001, published 2005) can be followed below.

One test concerns the target T1, HLA-B*0702 (Homo sapiens, UniProt P01889).
T1 construct: expressed in transfected cells; host or cells: T2-B7 cells (Tap-/-)
As to the kind of experiment: Measurement of peptide relative affinity to HLA-B*0702. In kind it is binding. Conditions: for Relative affinity: towards HLA-B*0702 molecule, lower = stronger binding. Here is the method:
Measurement of Peptide Relative Affinity to HLA class I. Tap−/− cells expressing the studied HLA-class I molecule (3×10^5 cells/mL) were incubated with various concentrations of peptides ranging from 100 μM to 0.1 μM in serum-free RPMI 1640 medium supplemented with 100 ng/ml of human β-2m at 37° C. for 16 hours. Cells were then washed twice and stained with the specific anti-class I mAb followed by FITC conjugated goat anti mouse Ig mAb to quantify the expression of HLA-A*0201. For each peptide concentration, the HLA-specific staining was calculated as the % of the staining obtained with 100 μM of the reference peptide. The relative affinity (RA) is determined as: RA=(Concentration of each peptide that induces 20% of HLA expression/Concentration of the reference peptide that induces 20% of HLA expression). The lower the RA-value, the stronger is the peptide binding to HLA. The mean RA value for each peptide is determined from at least three independent experiments.
For the study of Relative Affinity to HLA-A*0201, Tap−/− HLA-A*0201 T2 cells, the HLA-A*0201 specific mAb BB7.2 and the reference HLA-A*0201-binding peptide HIVpol 589 (IVGAETFYV) were used. For the study of Relative Affinity to HLA-A*0301, Tap−/− HLA-A*0301 T2-A3 cells are used. For the study of Relative Affinity to HLA-B*0701, Tap−/− HLA-B*0701 T2-B7 cells are used.
High affinity peptide discovery was also lead for the MHC molecule HLA-B*0702. 11 peptides presenting the primary anchor motif for HLA-B*0702 or predicted to show a high affinity by the computerized program BIMAS were tested for their Relative Affinity.

Test [1] deals with T2, HLA-A*0201 (human).
T2 construct: MHC class I molecule on TAP-deficient T2 cells; stabilised at the surface by the added peptide and detected with mAb BB7.2
As to the kind of experiment: HLA-A*0201 stabilisation on T2 cells, flow cytometry with BB7.2; ratio to reference peptide HIVpol 589.
Experimental: For each peptide concentration, the HLA-specific staining was calculated as the % of the staining obtained with 100 μM of the reference peptide. […] The mean RA value for each peptide is determined from at least three independent experiments.

Test [2] addresses T2, HLA-A*0201. As to the kind of experiment: decay of peptide-stabilised HLA-A*0201 on T2 cells after Brefeldin A, flow cytometry. A general note: A flow cytometer gives signals particle by particle.
Experimental: Assessment of Peptide/HLA class I Complex Stability. […] Cells were then washed four times to remove free peptide, incubated with Brefeldin A (10 μg/mL) for 1 hour to block cell surface expression of newly synthesized HLA molecules, washed and incubated at 37° C. for 0, 2, 4 or 6 hours. Subsequently, cells were stained with the HLA specific mAb followed by FITC conjugated goat anti mouse Ig mAb.

In the test with HLA-B*0702, APLSLGLET [HSP 397] displayed a Relative affinity above 10.

With DVAPLSLGL [HSP 395], in the test with HLA-B*0702, the Relative affinity is on record as above 10.

Turning to GPGPGGFGA [HSP 616], the Relative affinity in the test with HLA-B*0702 was above 10.

In turn, IPTKQTQIF [HSP 420] displayed a Relative affinity in the test with HLA-B*0702 above 10.

With IPTKQTQIFT [HSP 420(10)], in the test with HLA-B*0702, the Relative affinity is listed as above 10.

Turning to QVCNPIISGL [HSP 601], the Relative affinity in the test with HLA-B*0702 is reported as above 10.

With STRIPKVQKL [HSP 340], in the test with HLA-B*0702, the Relative affinity is listed as above 10.

Molecule YPEEISSMV [HSP 115] displayed a Relative affinity in the test with HLA-B*0702 above 10.

With YPEEISSMVL [HSP 115(10)], the Relative affinity in the test with HLA-B*0702 was above 10.

As to YPVTNAVIT [HSP 137], the “affinity for HLA-B*0702 (in words)” value in the test with HLA-B*0702 (Relative Affinity determination) is “high affinity”. In the test with HLA-B*0702, the Relative affinity is 1.2.

As for YPVTNAVITV [HSP 137(10)], the Relative affinity in the test with HLA-B*0702 was above 10.

For LLDVAPLSL [HSP 393 (LLDVAPLSL)], the Relative affinity with HLA-A*0201 [1] came to 0.4.

For the molecule SLFEGIDFYT [HSP 286 (SLFEGIDFYT)], the “Stability (hrs) (DC50, half life of the HLA-A*0201/peptide complex)” value in the test with HLA-A*0201 [2] was above 6 h. In the test with HLA-A*0201 [1], the Relative affinity worked out at 0.25.

On to LMGDKSENV [HSP 380 (LMGDKSENV)], for which, in the test with HLA-A*0201 [2], the “Stability (hrs) (DC50, half life of the HLA-A*0201/peptide complex)” value was determined as 4 h. Moreover, in the test with HLA-A*0201 [1], the Relative affinity worked out at 2.5.

As for YLGYPVTNAV (also called HSPI34(10)) [HSP 134(10) (YLGYPVTNAV)], the Relative affinity with HLA-A*0201 [1] is 0.6.

Take YLGYPVTNA [HSP 134 (YLGYPVTNA)]: the Relative affinity in the test with HLA-A*0201 [1] turned out to be 2.5.

On to LLLLDVAPL [HSP 391 (LLLLDVAPL)], for which the “Stability (hrs) (DC50, half life of the HLA-A*0201/peptide complex)” value with HLA-A*0201 [2] was above 6 h. In addition, in the test with HLA-A*0201 [1], the Relative affinity worked out at 0.5.
